Assay results published in PMC6166725.

Biological target: maltose-binding protein fragment MBP198–265 [MBP: P0AEX9]
Assay: ITC; iTC200, 22 °C; 350 μM MBP198–265 in the cell, 3.5 mM TF^PPD-SBD in the syringe; 20 mM potassium phosphate pH 7.0, 100 mM KCl, 0.05% NaN3

Substance: trigger factor tandem domain TF^PPD-SBD (from UniProt P0A850 113-246) (domain or fragment)
- Kd: 47 µM
- dH: -5.9 kcal/mol
